Laboratory results taken from paper doi:10.1101/2025.08.12.669934 (bioRxiv, 2025).
Where a chain is given by its changes, count along the chain named.

B1: Ypt35-3HA (natural protein, S. cerevisiae, UniProt P38815 1-214, looked up)
chain: MSDKISFLPPEPIQLLDEDSTEPELDIDSQQENEGPISASNSNDSTSHSNDCGATITRTRPRRSSSINANFSFQKAHVSDCTIVNGDHGTKFAVWRITVFLEPNLKAFAAKRESYKIQTYKRYSDFVRLRENLLTRIKTAKPEKLNCLQIPHLPPSVQWYSSWKYQEVNLNKDWLAKRQRGLEYFLNHIILNSSLVEMTKDILIQFLEPSKRVA
B2: Ypt35 P^10,12A -3HA (natural protein, S. cerevisiae, UniProt P38815 1-214, looked up)
chain: B1 chain with P10A, P12A

Experiments:
[1] = target: Vps13 F^2465A Y^2466A ^GFP (S. cerevisiae, UniProt Q07878 1-3144, F^2465A | Y^2466A); assay: co-IP
Vps13^GFP (wild type) = Vps13^GFP (wild type) (S. cerevisiae, UniProt Q07878 1-3144); assay: co-IP

| Binder | percent recovery relative to WT [1] [%] | percent recovery relative to WT (Vps13^GFP (wild type)) [%] |
| --- | --- | --- |
| B1 | 24 | – |
| B2 | – | 19 |
